In data set [1] the target is T1, beta-NGF (nerve growth factor) (Homo sapiens, UniProt P01138 P01138:122-241). Briefly: SPR; NGF-TrkA and NGF-P75; no PC-12 inhibition. The settings on record: tags: R&D Systems human NGF; chain copies: 2. As to the method: (§1) As directed in BIAcore Company's protocol, Protein A (21181, PIERCE) was immobilized on a CM5 sensor chip. About 1100 RU of human Trk A-Fc fused with the Fc portion of IgG (175-TK, R&D systems) was immobilized thereon. As the analyte, a mixture of NGF (0.1 μM) and each aptamer (0.33 μM) was injected after being allowed to stand for 30 minutes. […] When NGF binds stronger to a receptor than an aptamer, the aptamer may be removed and NGF may bind to the receptor. […] Using the binding amount of NGF and NGF receptor without an aptamer as 100, the binding amount of NGF and NGF receptor added with an aptamer was determined as a correction value. Here, the binding amount is the RU value at the peak top of the sensorgram of BIAcore (RU value immediately after completion of NGF injection). […] A similar experiment was performed for another receptor P75 (p75-Fc; R&D systems).
T1 sequence (P01138 122-241, one chain of several): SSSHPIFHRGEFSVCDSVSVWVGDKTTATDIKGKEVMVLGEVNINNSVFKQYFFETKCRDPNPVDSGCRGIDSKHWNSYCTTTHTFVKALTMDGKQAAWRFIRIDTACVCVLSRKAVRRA
Background: SPR reads the build-up and loss of mass on a sensor chip optically.

For data set [2], the target named is T1, beta-NGF (nerve growth factor). Briefly: SPR; blocks NGF-TrkA and NGF-P75; PC-12 neurite inhibition + (Table 2). The conditions noted are these: tags: R&D Systems; chain copies: 2. The method, then:
as §1

Data set [3] shares this target. As to the kind of experiment: cell_activity; PC-12 neurite outgrowth, 500 nM aptamer. The settings on record: tags: R&D Systems; chain copies: 2. The method, then: The physiological activity of aptamer was evaluated by a neurite outgrowth suppressive experiment using PC-12 cells. PC-12 cell, which is a cell line derived from rat adrenal gland pheochromocytoma, is a model cell of the nervous system, elongates neurite by NGF stimulation, and differentiates like nerve cells. Whether or not an aptamer inhibits the neurite outgrowth was evaluated. PC-12 cells were seeded on a 96 well flat-bottom plate coated with collagen, and a mixed solution of NGF (final concentration 25 ng/ml, or 1.9 nM) prereacted for 1 hr at 37° C. and an aptamer (final concentration 500 nM) was added to start the cell culture. Thereafter, the same amount of the aptamer was added twice every 24 hr and the level of neurite outgrowth was observed and evaluated on day 3 with a microscope. For evaluation, scores 0-3 were used, where score 0 is no neurite outgrowth, score 1 is slight neurite outgrowth, score 2 is neurite outgrowth to the nearby cell, and score 3 is markedly reticulated neurite outgrowth. The system wherein PC-12 cells were cultivated for 3 days with the addition of NGF alone was taken as a negative control, and system capable wherein the cells for 3 days without addition of NGF was taken as a positive control. […] Setting the score of the negative control as inhibitory activity 0%, and the score of the positive control as inhibitory activity 100%, the inhibitory activity (%) of the aptamer was calculated. An inhibitory activity of not less than 50% is shown with +, and that of less than 50% is shown with −.

Data set [4] has the same target. Briefly: cell_activity; neurite outgrowth, Neuroscreen-1 cells. The conditions noted are these: tags: R&D Systems; chain copies: 2. The method, then: The neurite outgrowth inhibitory activity of aptamer was evaluated by using Neuroscreen-1 cell, which is a subclone of PC-12 cells. 2500 Cells per well were cultured for one day in an RPMI-1640 medium containing 2.5% horse serum and 1.25% fetal bovine serum in a 96 well flat-bottom plate coated with collagen type IV. A mixed solution of NGF (final concentration 15 ng/ml or 1.1 nM) prereacted in a serum-free RPMI-1640 medium at room temperature or 37° C. for 30 min to 1 hr and an aptamer (final concentration 500-3 nM) was added. Two or three days later, the cytoplasm and nuclei were stained using Cellomics Neurite Outgrowth Kits (manufactured by Thermo Scientific), and neurite length per cell was measured by Cellomics ArrayScan VTI (manufactured by Thermo Scientific). With the neurite length per cell obtained by culturing the cell for 2 days with the addition of NGF alone as inhibitory activity 0%, and that of the cell obtained by NGF free culture as inhibitory activity 100%, the inhibitory activity of the aptamer was calculated from the neurite length per cell obtained by culturing with the addition of NGF and the aptamer in mixture. […] When the inhibitory activity was 0% or below, ‘0%’ is indicated. When it was not less than 100%, ‘100%’ is indicated. The 50% inhibitory concentration was determined from the concentrations at two, above and below points sandwiching the 50% inhibitory activity.

Data set [5] shares this target. Briefly: SPR; blocks NGF-TrkA and NGF-P75. The conditions noted are these: tags: R&D Systems; chain copies: 2. The method, then:
as §1

As a reminder, the IC50 is the midpoint of a concentration-inhibition curve.

Bounds are passed on as bounds.

Regarding GGGAAGCCUGUGGAGCUGCAGGAUGAAAAAAACCC (ssRNA, 2'-F pyrimidines) [SEQ36 aptamer], the activity in data set [1] was not below 60 % inhibition.

GGGAGCCUGUAAACAGCAGGUGAAAAAAACCC (ssRNA, 2'-F pyrimidines) [SEQ90 aptamer] yielded an activity in data set [1] not below 60 % inhibition.

As to UGUGGAGCUGCUUAAACAAGCAAGUGAAAAAAACCACA (ssRNA, 2'-F all pyrimidines) [SEQ32 aptamer], the activity in data set [2] was not below 60 % inhibition.

B1: SEQ32(1) (ssRNA)
RNA: UGUGGAGCUGCUUAAACAAGCAAGUGAAAAAAACCACA
modifications: 2'-F all pyrimidines; 2'-OMe at g10,a14,a15,a16,a18,a19,g20,a22,a23,g24; idT at 5' and 3' ends
For B1, the activity in data set [3] was not below 50 % inhibition.

B2: SEQ5 aptamer (ssRNA)
RNA: GGGAAGCCUGUGGAGCUGCUUAAACAAGCAAGUGAAAAAAACCACAGCAAAUGUAAAAAGCAUUGUCACCAACAACUGG
modifications: 2'-F all pyrimidines
Regarding B2, the activity in data set [2] is not below 60 % inhibition.

For the molecule GGAGCUGCCUACACUUUAGUAUGACAAACCUAGAGUGUAAAUGCUUC (ssRNA, 2'-F pyrimidines) [SEQ25 aptamer], the activity in data set [1] is not below 60 % inhibition.

B3: SEQ45 aptamer (ssRNA)
RNA: GGGAGAACUUCGACCAGAAGAGAAUGAAACUCCCAAAUCAAGGACAAUGAUAUGUGCGCAUACAUGGAUCCUCA
modifications: 2'-F all pyrimidines
Consider B3, for which inhibition in data set [4] was half-maximal at 20.2 nM (IC50). In data set [5], the activity was not below 60 % inhibition.

B4: SEQ3 aptamer (ssRNA)
RNA: GGGAAGCCUGUGGAGCUGCAGGAUGAAAAAAACCCAAAAUAAGUAGAAAUGACAGAAUGGCAUUGUCACCAACAACUGG
modifications: 2'-F all pyrimidines
For B4, in data set [2], the activity was not below 60 % inhibition.

B5: SEQ66 aptamer (ssRNA)
RNA: GGGAGAACUUCGACCAGAAGUUUGAAAAAAACCCAAAGCAAGCACAACAUUAUGUGCGCAUACAUGGAUCCUCA
modifications: 2'-F all pyrimidines
On to B5, for which, in data set [4], the IC50 was less than 10 nM. The molecule further gave an activity in data set [5] not below 60 % inhibition.

B6: SEQ65 aptamer (ssRNA)
RNA: GGGAGAACUUCGACCAGAAGUGUGAAAAAAACCCAAAUCGAGCACAAAAUUAUGUGCGCAUACAUGGAUCCUCA
modifications: 2'-F all pyrimidines
B6: in data set [4], the IC50 was 22.2 nM. The molecule also came in with an activity in data set [5] not below 60 % inhibition.

Molecule GGGAAGCCUGUGGAGCUGCAGGAUGAAAAAAACCCAAAAUUAAAU (ssRNA, 2'-F pyrimidines) [SEQ27 aptamer] had an activity in data set [1] not below 60 % inhibition.

For UGUGGAGCUGCUAAACAGCAAGUGAAAAAAACCACA (ssRNA, 2'-F pyrimidines) [SEQ33 aptamer], the activity in data set [1] is not below 60 % inhibition.

B7: SEQ84 aptamer (ssRNA)
RNA: GGGAGAACUUCGACCAGAAGUGAAAGAAACUCCCGAUGAAAGAUGUAACAAACCAUAUGUGCGCAUACAUGGAUCCUC
modifications: 2'-F all pyrimidines
For the molecule B7, the midpoint of inhibition in data set [4], the IC50, lay at 14.6 nM. Besides, in data set [5], the activity was not below 60 % inhibition.

B8: SEQ1 aptamer (ssRNA)
RNA: GGGAAGCCUGUGGAGCUGCAGGAUGAAAAAAACCCAAAAACAAAGACAAUGAUUGAGUAGCAUUGUCACCAACAACUGG
modifications: 2'-F all pyrimidines
In the case of B8, in data set [2], the activity was not below 60 % inhibition.

B9: SEQ47 aptamer (ssRNA)
RNA: GGGAGAACUUCGACCAGAAGAAGUUUGAAAAGAACCCAAAAUGAGCAAAAUAUGUGCGCAUACAUGGAUCCUCA
modifications: 2'-F all pyrimidines
As for B9, the IC50 in data set [4] worked out at 14.6 nM. The activity in data set [5] is not below 60 % inhibition.

For the molecule GGGAUAAAAAUAGAGUUUGAUAAACACCUGUAUUAAAACCC (ssRNA, 2'-F all pyrimidines) [SEQ30 aptamer], in data set [2], the activity is not below 60 % inhibition.

GGGAUAAAAAUAGAGUUUGAUAAACACCUGUAUUAAAACCC (ssRNA, 2'-F all pyrimidines; 2'-OMe at a35,a36) [SEQ30(3)] had an activity in data set [3] not below 50 % inhibition.

B10: SEQ30(1) (ssRNA)
RNA: GGGAUAAAAAUAGAGUUUGAUAAACACCUGUAUUAAAACCC
modifications: 2'-F all pyrimidines; 2'-OMe at a12,g13,a14,g15,g19,a20,a22,a23,a24,a26; idT at 5' and 3' ends
In data set [3], B10 had an activity not below 50 % inhibition.

As to GGGAUAAAAAUAGAGUUUGAUAAACACCUGUAUUAAAACCC (ssRNA, 2'-F all pyrimidines; 2'-OMe at a9,a10) [SEQ30(2)], the activity in data set [3] was not below 50 % inhibition.

B11: SEQ8 aptamer (ssRNA)
RNA: GGGAAGCCUGUGGAGCUGCGGAUAAAAAUAGAGUUUGAUAAACACCUGUAUUAAAACCGCAUUGUCACCAACAACUGG
modifications: 2'-F all pyrimidines
Regarding B11, the activity in data set [2] was not below 60 % inhibition.

GUGGAGCUGUUAAACAACAAGUGAAAAAAACCAC (ssRNA, 2'-F pyrimidines) [SEQ34 aptamer] yielded an activity in data set [1] not below 60 % inhibition.

B12: SEQ63 aptamer (ssRNA)
RNA: GGGAGAACUUCGACCAGAAGAUUUGAAAGAAACCCAAACUAAGCACAAAAUAUGUGCGCAUACAUGGAUCCUCA
modifications: 2'-F all pyrimidines
As to B12, the IC50 in data set [4] was less than 10 nM. The activity in data set [5] is not below 60 % inhibition.

In the case of GGGAAGCCGUGGAGCUGCGGAUGAAAAAAACCC (ssRNA, 2'-F pyrimidines) [SEQ88 aptamer], in data set [1], the activity is not below 60 % inhibition.

GGGAAGCCUGUAAACAGCAGGAUGAAAAAAACCC (ssRNA, 2'-F pyrimidines) [SEQ89 aptamer] gave an activity in data set [1] not below 60 % inhibition.

The molecule GGGCUGUGGAGCUGCUUAAACAAGCAAGUGAAAAAAACCACAGCCC (ssRNA, 2'-F pyrimidines) [SEQ26 aptamer] yielded an activity in data set [1] not below 60 % inhibition.

B13: SEQ4 aptamer (ssRNA)
RNA: GGGAAGCCUGUGGAGCUGCAGGAUGAAAAAAACCCAAAUAUGACAAAUAAAACGGCAACGCAUUGUCACCAACAACUGG
modifications: 2'-F all pyrimidines
In the case of B13, in data set [2], the activity is not below 60 % inhibition.

Molecule GGGAGCUGCUUAAACAAGCAAGUGAAAAAAACCC (ssRNA, 2'-F pyrimidines) [SEQ31 aptamer] had an activity in data set [1] not below 60 % inhibition.

B14: SEQ9 aptamer (ssRNA)
RNA: GGGAAGCCUGUGGAGCUGCUCCACAAGGAUGAAAAAAACCCAAAUAAUAUAUUUAAUCAGCAUUGUCACCAACAACUGG
modifications: 2'-F all pyrimidines
On to B14, for which the activity in data set [2] is not below 60 % inhibition.

B15: SEQ61 aptamer (ssRNA)
RNA: GGGAGAACUUCGACCAGAAGGUCGUAACGAAUAAAACUCCUGCACAAAAAUAUGUGCGCAUACAUGGAUCCUCA
modifications: 2'-F all pyrimidines
Turning to B15, in data set [4], the half-maximal inhibitory concentration (IC50) came out at 20.7 nM. For the same molecule, the activity in data set [5] is not below 60 % inhibition.

B16: SEQ6 aptamer (ssRNA)
RNA: GGGAAGCCUGUGGAGCUGCAGGAUGAAAAAAACCCAAAAUUAAAUAAAAAAUAGACGGUGCAUUGUCACCAACAACUGG
modifications: 2'-F all pyrimidines
On to B16, for which, in data set [2], the activity was not below 60 % inhibition.

B17: SEQ7 aptamer (ssRNA)
RNA: GGGAAGCCUGUGGAGCUGCAGGAUGAAAAAAACCCAAAAUUAGAUAAAAAAUAGACGGUGCAUUGUCACCAACAACUGG
modifications: 2'-F all pyrimidines
As to B17, in data set [2], the activity was not below 60 % inhibition.

B18: SEQ12 aptamer (ssRNA)
RNA: GGGAAGCCUGUGGAGCUGCGAAACAGUGAAACAAACCACAGACUGAGAAAGCAGUAACAGCAUUGUCACCAACAACUGG
modifications: 2'-F all pyrimidines
With B18, the activity in data set [2] is not below 60 % inhibition.
